Here are results for one substance from paper PMC7526893.

This test has as its target FLAG-tagged vasodilator-stimulated phosphoprotein (FLAG-VASP), wildtype (human) (UniProt P50552). Put plainly: proximity ligation; 293T cells co-expressing p8-HA and FLAG-VASP or FLAG-N-WASP, fixed with 2% PFA; mouse anti-FLAG and rabbit anti-HA, Duolink In Situ Red kit; dots per positive cell counted.
UniProt P50552, sequence (P50552 whole entry): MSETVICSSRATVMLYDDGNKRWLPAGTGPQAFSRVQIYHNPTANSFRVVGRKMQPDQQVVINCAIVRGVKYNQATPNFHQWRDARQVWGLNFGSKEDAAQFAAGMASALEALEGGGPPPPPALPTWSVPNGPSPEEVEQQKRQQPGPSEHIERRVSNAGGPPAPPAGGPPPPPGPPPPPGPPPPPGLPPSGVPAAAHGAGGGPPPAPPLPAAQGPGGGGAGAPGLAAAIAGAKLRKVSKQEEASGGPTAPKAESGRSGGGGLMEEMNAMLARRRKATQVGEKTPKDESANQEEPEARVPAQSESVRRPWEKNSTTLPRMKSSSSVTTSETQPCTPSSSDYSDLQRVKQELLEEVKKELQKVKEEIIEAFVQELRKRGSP

Turning to “HTLV-1 p8 protein, HA-tagged (p8-HA) (natural protein)”, the PLA spots per cell (spots per cell) amounted to 7.
